Experimental data published in US20170037124A1 (Regeneron, published 2017).

T1: human ANGPTL8 peptide (hANGPTL8 peptide, SEQ ID NO: 337) (human)
T1 construct: also called N-terminal region ANGPTL8 peptide
T1 peptide: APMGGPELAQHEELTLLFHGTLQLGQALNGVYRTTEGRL

T2: peptide from the N-terminal coiled-coil region of human ANGPTL3 (hANGPTL3 peptide, SEQ ID NO: 338) (human)
T2 construct: also called hANGPTL3 shift peptide
T2 peptide: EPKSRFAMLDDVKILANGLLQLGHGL

T3: peptide from the N-terminal coiled-coil region of human ANGPTL4 (hANGPTL4 peptide, SEQ ID NO: 339) (human)
T3 peptide: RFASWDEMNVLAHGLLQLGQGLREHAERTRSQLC

T4: human ANGPTL8 expressed with C-terminal mouse IgG2a Fc tag (hANGPTL8-mFc; SEQ ID NO: 340) (human)
T4 construct: also called Angiopoietin-like protein 8
T4 chain: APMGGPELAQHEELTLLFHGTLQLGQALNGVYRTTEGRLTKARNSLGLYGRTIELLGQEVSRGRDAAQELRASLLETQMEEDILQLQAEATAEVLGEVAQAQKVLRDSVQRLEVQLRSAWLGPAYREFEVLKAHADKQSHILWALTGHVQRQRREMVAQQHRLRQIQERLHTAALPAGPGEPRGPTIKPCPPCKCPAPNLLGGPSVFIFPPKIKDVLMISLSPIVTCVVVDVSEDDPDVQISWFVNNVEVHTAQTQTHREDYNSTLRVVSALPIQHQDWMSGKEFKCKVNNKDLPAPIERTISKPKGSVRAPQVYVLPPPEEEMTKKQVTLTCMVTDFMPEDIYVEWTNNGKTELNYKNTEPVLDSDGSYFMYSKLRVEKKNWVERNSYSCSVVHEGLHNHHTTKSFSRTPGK

T5: monkey ANGPTL8 expressed with C-terminal mouse IgG2a Fc tag (MfANGPTL8-mFc; SEQ ID NO: 341) (cynomolgus monkey)
T5 construct: also called cynomolgus monkey ANGPTL8
T5 chain: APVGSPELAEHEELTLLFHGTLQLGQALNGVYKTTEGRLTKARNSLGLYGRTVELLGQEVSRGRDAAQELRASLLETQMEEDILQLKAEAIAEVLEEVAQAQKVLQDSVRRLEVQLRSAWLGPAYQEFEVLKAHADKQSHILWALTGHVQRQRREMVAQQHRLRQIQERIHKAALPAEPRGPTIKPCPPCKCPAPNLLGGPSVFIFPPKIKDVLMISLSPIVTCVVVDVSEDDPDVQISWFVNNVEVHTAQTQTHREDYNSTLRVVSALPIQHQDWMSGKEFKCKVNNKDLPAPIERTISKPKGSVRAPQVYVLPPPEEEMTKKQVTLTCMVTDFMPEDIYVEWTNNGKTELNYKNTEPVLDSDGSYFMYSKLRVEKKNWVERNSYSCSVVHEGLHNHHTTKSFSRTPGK

B1: H4H15323P (antibody, human IgG4, V domains shown)
VH: EVQLVESGGGLVQPGGSLRLSCAASGFTFSSYAMTWVRQAPGKGLEWVSAISGSGGSTYYTDSVKGRFTLSRDNSKNTLYLQMNSLRAEDTAVYYCAKSDYSNTIYWYYGMDVWGQGTTVTVSS
VL: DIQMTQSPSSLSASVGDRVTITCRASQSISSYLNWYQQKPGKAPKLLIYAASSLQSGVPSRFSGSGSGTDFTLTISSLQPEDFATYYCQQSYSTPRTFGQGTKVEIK
notes: H4H prefix: human IgG4 Fc
B2: H4H15350P2 (antibody, human IgG4, V domains shown)
VH: EVQLVESGGGLVQPGGSLRLSCAASGFTFSSFRMTWVRQAPGKGLEWVANIKQDGSEKYYVDSVKGRFTISRDNAKNSLYLQMNSLRAEDTAVYYCARGGGIAAYWGQGTLVTVSS
VL: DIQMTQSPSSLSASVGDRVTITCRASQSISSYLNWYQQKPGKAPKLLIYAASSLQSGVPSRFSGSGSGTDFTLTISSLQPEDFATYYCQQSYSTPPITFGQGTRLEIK
notes: H4H prefix: human IgG4 Fc
B3: H4H15318P (antibody, human IgG4, V domains shown)
VH: QVQLVESGGGVVQPGRSLRLSCTASGFTFGNFGIHWVRQAPGKGLEWVAVISYDGTDKFYADPVKGRFIISRDNSMNILYLQMNSLRAEDTAVYYCAKDGEMELRGYYYYYGMDVWGQGTTVTVSS
VL: DIQMTQSPSSVSASVGDRVTITCRASQGINTWLAWYQQKPGTAPKLLIFAASSLESGVPSRFSGSGFGTDFTLTISSLQSEDLATYFCQQVHSPPYTFGQGTKLEIK
notes: H4H prefix: human IgG4 Fc
B4: H4H15345P (antibody, human IgG4, V domains shown)
VH: EVQLVESGGGLVQPGGSLRLSCAASGFTFSTYAMSWVRQAPGKGLEWVSVISGSFISTYYADSVKGRFTISRDNSKNTLYLQMTSLRAEDTAVYYCAKNSPFDYWGQGTLVTVSS
VL: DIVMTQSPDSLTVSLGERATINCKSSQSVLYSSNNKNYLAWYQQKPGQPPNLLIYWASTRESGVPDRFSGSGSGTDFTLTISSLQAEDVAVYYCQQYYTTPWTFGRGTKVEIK
notes: H4H prefix: human IgG4 Fc
B5: H4H15343P (antibody, human IgG4, V domains shown)
VH: QVQLVESGGGVVQPGRSLRLSCAASGFTFSSYGMHWVRQAPGKGLEWVAVISYAGSNKYYADSVKGRFTISRDNSKNTLYLQMNGLRAEDTAVYYCAKDPYGDYEGVLDYWGQGTLVTVSS
VL: DIQMTQSPSSLSASVGDRVTITCQASQDISNYLNWYQQKPGKAPKLLIYDASNLETGVPSRFSGSGSGTDFTFTISSLQPEDIATYYCQQYDHLPITFGQGTRLEIK
notes: H4H prefix: human IgG4 Fc
B6: H4H15346P (antibody, human IgG4, V domains shown)
VH: EVQLVESGGGLVQPGGSLRLSCAASGFTFSNYAMSWVRQAPGKGLEWVSTISDTGGSTYYADSVKGRFALSRDNSRNTLYLQMNSLRAEDTAVYYCAKEGPPDYWGQGTLVTVSS
VL: EIVLTQSPATLSLSPGERATLSCRTSQSVSIYLAWYQQKPGQAPRLLIYDASKRATGIPARFSGRGSGTDFTLTISSLEPEDFAVYYCQQRSNWPLTFGQGTRLEIK
notes: H4H prefix: human IgG4 Fc
B7: H4H15319P (antibody, human IgG4, V domains shown)
VH: EVQLVESGGGVVRPGGSLRLSCAASGFTVDDYDMSWVRQTPGKGLEWISGINWNGGNTGYADSVKGRFIISRDSAKNSLFLQMNSLRAEDTALYHCWGAIGAFDIWGQGTMVTVSS
VL: DIVMTQSPLSSPVTLGQPASISCRSSQSLVHSDGGTYLSWLQQRPGQPPRLLIYKIFNRFSGVPDRFSGSGAGTDFTLRISRVEAEDVGVYYCMQTTQFPLTFGGGTKVEIK
notes: H4H prefix: human IgG4 Fc

Target: T1, human ANGPTL8 peptide (hANGPTL8 …)
Experiment: SPR, captured mAb, 500 nM peptide, 25C
Method: (§1) The assay utilized a format where ANGPTL8 antibodies were captured on the sensor surface and peptides were injected over the antibody surface. Peptides from the N-terminal coiled-coil region of human ANGPTL3 (hANGPTL3 peptide, SEQ ID NO: 338) and human ANGPTL4 (hANGPTL4 peptide, SEQ ID NO: 339) were also included as controls. Also included was a control antibody (H4H268P from US2011/0159015A1) that binds to the ANGPTL4 peptide and a negative isotype control antibody. All binding studies were performed in 10 mM HEPES pH 7.4, 150 mM NaCl, 3 mM EDTA, and 0.05% v/v Surfactant Tween-20 (HBS-ET running buffer) at 25° C. The HCA sensor surface was derivatized via amine coupling to a monoclonal mouse anti-human Fc antibody (GE, # BR-1008-39), and to this surface was captured approximately 1000 RU of each ANGPTL8 antibody or control antibody. Peptide stock solutions were diluted in HBS-ET running buffer to 500 nM and injected over the antibody-captured surfaces for 4 minutes at a flow rate of 30 μL/minute followed by the dissociation of bound peptide in HBS-ET running buffer for 10 minutes.
(§2) Dissociative half-lives (t½) were calculated from kd as: […]

500 nM hANGPTL8 peptide Bound (RU) | koff | t½ | Binder | binding result
0 RU | – | – | B1 | no binding (tested: <9 RU at 500 nM peptide)
0 RU | – | – | B2 | no binding (tested: <9 RU at 500 nM peptide)
0 RU | – | – | B3 | no binding (tested: <9 RU at 500 nM peptide)
37 RU | 2.03e-05 s⁻¹ | 9.5 h | B4 | –
0 RU | – | – | B5 | no binding (tested: <9 RU at 500 nM peptide)
0 RU | – | – | B6 | no binding (tested: <9 RU at 500 nM peptide)
0 RU | – | – | B7 | no binding (tested: <9 RU at 500 nM peptide)

Target: T2, peptide from the N-terminal coiled-coil …
Experiment: SPR, captured mAb, 500 nM peptide, 25C
Method: as §1, §2

500 nM hANGPTL3 peptide Bound (RU) | Binder | binding result
0 RU | B1 | no binding (tested: <9 RU at 500 nM peptide)
0 RU | B2 | no binding (tested: <9 RU at 500 nM peptide)
0 RU | B3 | no binding (tested: <9 RU at 500 nM peptide)
0 RU | B4 | no binding (tested: <9 RU at 500 nM peptide)
0 RU | B5 | no binding (tested: <9 RU at 500 nM peptide)
0 RU | B6 | no binding (tested: <9 RU at 500 nM peptide)
0 RU | B7 | no binding (tested: <9 RU at 500 nM peptide)

Target: T3, peptide from the N-terminal coiled-coil …
Experiment: SPR, captured mAb, 500 nM peptide, 25C
Method: as §1, §2

500 nM hAngPTL4 peptide Bound (RU) | Binder | binding result
0 RU | B1 | no binding (tested: <9 RU at 500 nM peptide)
0 RU | B2 | no binding (tested: <9 RU at 500 nM peptide)
0 RU | B3 | no binding (tested: <9 RU at 500 nM peptide)
0 RU | B4 | no binding (tested: <9 RU at 500 nM peptide)
0 RU | B5 | no binding (tested: <9 RU at 500 nM peptide)
0 RU | B6 | no binding (tested: <9 RU at 500 nM peptide)
0 RU | B7 | no binding (tested: <9 RU at 500 nM peptide)

Target: T6, anti-mFc (AMC) Octet biosensor, blank
T6 construct: Sensor without captured protein, used as blank; also called Blank AMC Sensor
Experiment: BLI Octet, blank AMC sensor, 100 nM mAb, 25C
Method: (§3) Binding of ANGPTL8 antibodies to human and monkey ANGPTL8 proteins was investigated using Bio-layer Interferometry with an Octet HTX biosensor platform (ForteBio, A Division of Pall Life Sciences). All experiments were performed at 25° C. in 10 mM HEPES pH 7.4, 150 mM NaCl, 0.05% v/v Surfactant Tween-20, and 1 mg/ml BSA with the reaction multiwell plate agitated at 1000 rpm. Approximately 1.6 nm of human ANGPTL8 produced with a C-terminal mouse IgG2a Fc tag (hANGPTL8-mFc; SEQ ID NO: 340) or cynomolgus monkey ANGPTL8 produced with a C-terminal mouse IgG2a Fc tag (MfANGPTL8-mFc; SEQ ID NO: 341) was captured onto anti-mFc (AMC) Octet biosensors by submerging the sensors into wells containing 10 μg/mL of each protein for 4 minutes. Under the same conditions a negative control protein with the same mFc tag (hLDLR-mFc) was also coupled to the AMC sensor. All four sensors, […] and one blank, were then submerged into wells containing 100 nM of different ANGPTL8 monoclonal antibodies or an isotype control for 4 minutes.

mAb Binding Response (nm) | Binder
0 nm | B1
-0.01 nm | B2
0.01 nm | B3
0.01 nm | B4
0.01 nm | B5
-0.01 nm | B6
0 nm | B7

Target: T4, human ANGPTL8 expressed with C-terminal …
Experiment: BLI Octet, captured antigen, 100 nM mAb, 25C
Method: as §3

mAb Binding Response (nm) | Binder
0.18 nm | B1
0.17 nm | B2
0.19 nm | B3
0.25 nm | B4
0.17 nm | B5
0.07 nm | B6
0.22 nm | B7

Target: T5, monkey ANGPTL8 expressed with …
Experiment: BLI Octet, captured antigen, 100 nM mAb, 25C
Method: as §3

mAb Binding Response (nm) | Binder
0.15 nm | B1
0.2 nm | B2
0.2 nm | B3
0.31 nm | B4
0.2 nm | B5
0.01 nm | B6
0.26 nm | B7

Target: T7, negative control protein with the same mFc tag (hLDLR-mFc) (human; mouse, UniProt P01130 22-788, limits assumed)
T7 construct: also called Irrelevant control; not shown: mouse IgG2a Fc tag (same mFc tag as hANGPTL8-mFc)
Experiment: BLI Octet, captured antigen, 100 nM mAb, 25C
Method: as §3

T7 sequence (P01130 22-788 limits assumed): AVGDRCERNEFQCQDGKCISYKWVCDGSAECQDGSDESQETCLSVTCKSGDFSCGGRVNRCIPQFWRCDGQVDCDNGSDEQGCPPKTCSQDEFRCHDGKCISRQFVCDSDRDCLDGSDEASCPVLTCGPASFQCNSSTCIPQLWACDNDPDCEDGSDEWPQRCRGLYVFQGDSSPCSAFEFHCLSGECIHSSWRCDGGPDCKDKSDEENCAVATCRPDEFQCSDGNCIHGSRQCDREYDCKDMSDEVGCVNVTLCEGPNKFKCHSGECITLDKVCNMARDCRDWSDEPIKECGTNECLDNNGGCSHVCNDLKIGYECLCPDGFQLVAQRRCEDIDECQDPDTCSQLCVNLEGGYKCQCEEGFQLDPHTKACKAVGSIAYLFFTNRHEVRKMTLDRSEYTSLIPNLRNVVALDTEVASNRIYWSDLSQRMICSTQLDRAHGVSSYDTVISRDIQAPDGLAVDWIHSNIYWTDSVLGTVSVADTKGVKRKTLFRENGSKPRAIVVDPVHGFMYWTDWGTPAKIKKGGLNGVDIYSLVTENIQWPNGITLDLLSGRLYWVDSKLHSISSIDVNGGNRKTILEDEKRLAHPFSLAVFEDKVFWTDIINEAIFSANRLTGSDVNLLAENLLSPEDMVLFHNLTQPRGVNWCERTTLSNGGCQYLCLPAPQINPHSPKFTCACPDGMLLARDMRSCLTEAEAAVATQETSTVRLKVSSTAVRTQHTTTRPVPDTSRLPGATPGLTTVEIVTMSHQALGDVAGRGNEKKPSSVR

mAb Binding Response (nm) | Binder
0 nm | B1
0 nm | B2
0.01 nm | B3
0 nm | B4
-0.01 nm | B5
0 nm | B6
-0.01 nm | B7
